# Results published in paper PMC3798187.
# Legend:
# [1] = target: FLAG-RACK1 WD5–7 (human RACK1 in which WD40 domains 1 to 4 have been deleted) (human); test: co-IP; anti-FLAG immunoprecipitation (protein A magnetic beads) from extracts of mRNA-injected Xenopus embryos in EB buffer, 1 h at 4°C; Western blots with anti-xMELK, anti-RACK1, anti-FLAG or anti-myc antibodies; uninjected embryos as control
# [2] = target: FLAG-RACK1 WD1–4 (human RACK1 in which WD40 domains 5 to 7 have been deleted) (human); test: as above
substance,measurement,setting,value
myc-tagged xMELK (from UniProt Q91821 1-651) (enzyme),fold of myc-xMELK co-immunoprecipitated (myc/FLAG ratio) compared to full length FLAG-RACK1,[1],0.7 times
same,fold of myc-xMELK co-immunoprecipitated (myc/FLAG ratio) compared to full length FLAG-RACK1,[2],2.1 times
